Measurements: the supplement of paper PMC9112550, “Optimization of the antimicrobial peptide Bac7 by deep mutational scanning” (BMC Biology, 2022)

System: Escherichia coli TOP10
Experiment: shrunken log2 fold change of peptide-encoding DNA abundance (4.5 h post-induction vs induction); higher = less antimicrobial activity (less host growth inhibition)
Conditions: time post-induction: 4.5 h; library: site-saturation at positions 5, 18, 19, 20
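Further: peptides expressed intracellularly from a pBAD plasmid library in pooled LB shake-flask culture, induced with 0.3% L-arabinose, DNA abundance read by NGS, three biological replicates, DESeq2 with apeglm shrinkage.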

Sequence	shrunken log2 fold change
RRIRQRPPRLPRPRPRPNHMPRP	-0.422
RRIRQRPPRLPRPRPRPNHQPRP	-0.0841
RRIRQRPPRLPRPRPRPNKHPRP	-0.622
RRIRQRPPRLPRPRPRPNKYPRP	-0.686
RRIRQRPPRLPRPRPRPNLKPRP	-0.196
RRIRQRPPRLPRPRPRPNLRPRP	0.0769
RRIRQRPPRLPRPRPRPNMHPRP	-0.34
RRIRQRPPRLPRPRPRPNMIPRP	-0.209
RRIRQRPPRLPRPRPRPNNLPRP	-0.401
RRIRQRPPRLPRPRPRPNPQPRP	0.129
RRIRQRPPRLPRPRPRPNQVPRP	-0.0722
RRIRQRPPRLPRPRPRPNQYPRP	-0.529
RRIRQRPPRLPRPRPRPNRVPRP	-0.107
RRIRQRPPRLPRPRPRPNSPPRP	-0.0178
RRIRQRPPRLPRPRPRPNSSPRP	-1.14
RRIRQRPPRLPRPRPRPNTGPRP	-0.766
RRIRQRPPRLPRPRPRPNTLPRP	0.013
RRIRQRPPRLPRPRPRPNTVPRP	-0.369
RRIRQRPPRLPRPRPRPNVIPRP	-0.0189
RRIRQRPPRLPRPRPRPNYIPRP	-0.445
RRIRQRPPRLPRPRPRPNYSPRP	-0.397
RRIRQRPPRLPRPRPRPPAPPRP	0.399
RRIRQRPPRLPRPRPRPPDSPRP	0.377
RRIRQRPPRLPRPRPRPPDVPRP	0.124
RRIRQRPPRLPRPRPRPPEQPRP	0.00242

Sequence	shrunken log2 fold change
RRIRQRPPRLPRPRPRPPERPRP	0.0424
RRIRQRPPRLPRPRPRPPEVPRP	0.0121
RRIRQRPPRLPRPRPRPPFYPRP	-0.0349
RRIRQRPPRLPRPRPRPPGSPRP	0.111
RRIRQRPPRLPRPRPRPPHCPRP	0.0459
RRIRQRPPRLPRPRPRPPHHPRP	0.972
RRIRQRPPRLPRPRPRPPHKPRP	1.25
RRIRQRPPRLPRPRPRPPHPPRP	0.548
RRIRQRPPRLPRPRPRPPISPRP	-0.187
RRIRQRPPRLPRPRPRPPKRPRP	0.487
RRIRQRPPRLPRPRPRPPLFPRP	0.838
RRIRQRPPRLPRPRPRPPLPPRP	0.424
RRIRQRPPRLPRPRPRPPMNPRP	-0.299
RRIRQRPPRLPRPRPRPPPPPRP	0.822
RRIRQRPPRLPRPRPRPPQPPRP	1.1
RRIRQRPPRLPRPRPRPPRAPRP	0.552
RRIRQRPPRLPRPRPRPPTGPRP	0.0124
RRIRQRPPRLPRPRPRPPTHPRP	0.106
RRIRQRPPRLPRPRPRPPTTPRP	-0.0101
RRIRQRPPRLPRPRPRPPVDPRP	-0.19
RRIRQRPPRLPRPRPRPPVHPRP	0.164
RRIRQRPPRLPRPRPRPPWNPRP	0.0241
RRIRQRPPRLPRPRPRPQCWPRP	-0.0996
RRIRQRPPRLPRPRPRPQDHPRP	-0.408
RRIRQRPPRLPRPRPRPQEHPRP	-0.942

Sequence	shrunken log2 fold change
RRIRQRPPRLPRPRPRPQEVPRP	-0.171
RRIRQRPPRLPRPRPRPQFEPRP	-0.0143
RRIRQRPPRLPRPRPRPQGLPRP	0.0739
RRIRQRPPRLPRPRPRPQGMPRP	0.0331
RRIRQRPPRLPRPRPRPQHMPRP	0.0284
RRIRQRPPRLPRPRPRPQHSPRP	-0.062
RRIRQRPPRLPRPRPRPQICPRP	-0.229
RRIRQRPPRLPRPRPRPQIRPRP	-0.307
RRIRQRPPRLPRPRPRPQKEPRP	-0.00507
RRIRQRPPRLPRPRPRPQKPPRP	0.0718
RRIRQRPPRLPRPRPRPQKVPRP	-0.0255
RRIRQRPPRLPRPRPRPQLEPRP	0.307
RRIRQRPPRLPRPRPRPQLYPRP	0.119
RRIRQRPPRLPRPRPRPQMQPRP	0.131
RRIRQRPPRLPRPRPRPQNNPRP	-0.54
RRIRQRPPRLPRPRPRPQQEPRP	0.0811
RRIRQRPPRLPRPRPRPQQSPRP	-0.0224
RRIRQRPPRLPRPRPRPQRPPRP	0.0996
RRIRQRPPRLPRPRPRPQRWPRP	0.178
RRIRQRPPRLPRPRPRPQRYPRP	-0.0112
RRIRQRPPRLPRPRPRPQSDPRP	-0.00542
RRIRQRPPRLPRPRPRPQSFPRP	-0.0179
RRIRQRPPRLPRPRPRPQTIPRP	-0.16
RRIRQRPPRLPRPRPRPQTLPRP	-0.319
RRIRQRPPRLPRPRPRPQWSPRP	0.282

Sequence	shrunken log2 fold change
RRIRQRPPRLPRPRPRPQWTPRP	-0.126
RRIRQRPPRLPRPRPRPQWWPRP	0.0549
RRIRQRPPRLPRPRPRPRAMPRP	0.0219
RRIRQRPPRLPRPRPRPRDHPRP	0.423
RRIRQRPPRLPRPRPRPRFDPRP	-0.0137
RRIRQRPPRLPRPRPRPRFGPRP	0.198
RRIRQRPPRLPRPRPRPRFIPRP	-0.398
RRIRQRPPRLPRPRPRPRGGPRP	0.484
RRIRQRPPRLPRPRPRPRGQPRP	0.726
RRIRQRPPRLPRPRPRPRHKPRP	0.0456
RRIRQRPPRLPRPRPRPRINPRP	-0.184
RRIRQRPPRLPRPRPRPRKPPRP	0.0318
RRIRQRPPRLPRPRPRPRKWPRP	0.832
RRIRQRPPRLPRPRPRPRMWPRP	-0.429
RRIRQRPPRLPRPRPRPRNWPRP	-0.0692
RRIRQRPPRLPRPRPRPRQFPRP	-0.121
RRIRQRPPRLPRPRPRPRQIPRP	0.0413
RRIRQRPPRLPRPRPRPRRCPRP	0.271
RRIRQRPPRLPRPRPRPRRYPRP	0.112
RRIRQRPPRLPRPRPRPRTIPRP	0.122
RRIRQRPPRLPRPRPRPRVVPRP	0.0149
RRIRQRPPRLPRPRPRPRWEPRP	0.0653
RRIRQRPPRLPRPRPRPRYSPRP	-0.192
RRIRQRPPRLPRPRPRPSAIPRP	-0.399
RRIRQRPPRLPRPRPRPSCFPRP	-0.529

Sequence	shrunken log2 fold change
RRIRQRPPRLPRPRPRPSCTPRP	-0.167
RRIRQRPPRLPRPRPRPSDGPRP	-0.0586
RRIRQRPPRLPRPRPRPSEIPRP	-0.0356
RRIRQRPPRLPRPRPRPSELPRP	-0.159
RRIRQRPPRLPRPRPRPSEMPRP	0.0648
RRIRQRPPRLPRPRPRPSFGPRP	0.0622
RRIRQRPPRLPRPRPRPSFKPRP	-0.525
RRIRQRPPRLPRPRPRPSFNPRP	-0.48
RRIRQRPPRLPRPRPRPSFPPRP	-0.125
RRIRQRPPRLPRPRPRPSFSPRP	-0.443
RRIRQRPPRLPRPRPRPSGEPRP	0.0168
RRIRQRPPRLPRPRPRPSGHPRP	-0.0673
RRIRQRPPRLPRPRPRPSGKPRP	-0.147
RRIRQRPPRLPRPRPRPSHEPRP	-0.0209
RRIRQRPPRLPRPRPRPSHNPRP	0.547
RRIRQRPPRLPRPRPRPSHRPRP	-0.0821
RRIRQRPPRLPRPRPRPSIWPRP	-0.0257
RRIRQRPPRLPRPRPRPSKIPRP	-0.143
RRIRQRPPRLPRPRPRPSKKPRP	0.0216
RRIRQRPPRLPRPRPRPSLWPRP	0.337
RRIRQRPPRLPRPRPRPSMFPRP	-0.667
RRIRQRPPRLPRPRPRPSMQPRP	-0.0429
RRIRQRPPRLPRPRPRPSMRPRP	0.0637
RRIRQRPPRLPRPRPRPSNCPRP	-0.136
RRIRQRPPRLPRPRPRPSPRPRP	0.31

Sequence	shrunken log2 fold change
RRIRQRPPRLPRPRPRPSPVPRP	0.0734
RRIRQRPPRLPRPRPRPSQHPRP	-0.356
RRIRQRPPRLPRPRPRPSQNPRP	-0.383
RRIRQRPPRLPRPRPRPSQTPRP	-0.083
RRIRQRPPRLPRPRPRPSSRPRP	-0.14
RRIRQRPPRLPRPRPRPSVAPRP	-0.0735
RRIRQRPPRLPRPRPRPSVFPRP	-0.143
RRIRQRPPRLPRPRPRPSWNPRP	-0.238
RRIRQRPPRLPRPRPRPSWRPRP	0.0854
RRIRQRPPRLPRPRPRPSYGPRP	-0.188
RRIRQRPPRLPRPRPRPTALPRP	-0.0491
RRIRQRPPRLPRPRPRPTCPPRP	-0.0183
RRIRQRPPRLPRPRPRPTCQPRP	-0.125
RRIRQRPPRLPRPRPRPTCRPRP	0.133
RRIRQRPPRLPRPRPRPTDTPRP	-0.339
RRIRQRPPRLPRPRPRPTDWPRP	0.0907
RRIRQRPPRLPRPRPRPTEFPRP	-0.113
RRIRQRPPRLPRPRPRPTENPRP	0.0631
RRIRQRPPRLPRPRPRPTFCPRP	-0.0744
RRIRQRPPRLPRPRPRPTFEPRP	-0.177
RRIRQRPPRLPRPRPRPTHVPRP	-0.0938
RRIRQRPPRLPRPRPRPTILPRP	0.939
RRIRQRPPRLPRPRPRPTKFPRP	-0.203
RRIRQRPPRLPRPRPRPTKTPRP	0.298
RRIRQRPPRLPRPRPRPTNMPRP	-0.521
